Series [1] in a line: Static and dynamic light scattering (SLS/DLS) of block co-polypeptides. Format: physicochemical. Particulars: for Nagg / Rg(nm) / Rh (nm) / ρ: Table 5; for Nagg / Rg(nm) / Rh (nm): 10 μM in PBS, 15 °C; for ρ: shape factor Rg/Rh. The method in brief:
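Samples at 10 μM in PBS (140 mM NaCl, 10 mM phosphate, 3 mM KCl, pH 7.4), filtered 0.45 μm, measured at 15 °C over 30°–150° in 5° steps. Rh from cumulant fit of DLS, extrapolated to zero angle. Rg and MW from partial Zimm plots of SLS.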

Series [2] can be described thus: Cryo-TEM micelle core size, inter-core spacing and aspect ratio. In kind it is physicochemical. Particulars: Table 6, mean ± standard deviation; for Spacing (nm): inter-core spacing. The method, then:
Using the data from FIG. 18, particularly the longest straight line of an individual particle and a corresponding perpendicular measurement were made to describe the aspect ratio of particles observed.
Cryo-TEM experiments were performed at Duke University's Shared Materials Instrumentation Facility (Durham, N.C.). Lacey holey carbon grids (Ted Pella, Redding, Calif.) were glow discharged in a PELCO EasiGlow Cleaning System (Ted Pella, Redding, Calif.). A 3 μL drop (10 μM RLPn-ELP80) was deposited onto the grid, blotted for 3 s with an offset of −3 mm, and vitrified in liquid ethane using the Vitrobot Mark III (FEI, Eindhoven, Netherlands). Prior to vitrification, the sample chamber was maintained at 15° C. and 100% relative humidity to prevent sample evaporation. Grids were transferred to a Gatan 626 cryoholder (Gatan, Pleasanton, Calif.) and imaged with a FEI Tecnai G2 Twin TEM (FEI, Eindhoven, Netherlands), operating at 80 keV. Feature sizes and spacing distances were measured in ImageJ by manual measurement of at least 25 particles.

B1: RLP80-ELPV80: RLP-ELP block co-polypeptide with Val guest residue in the corona (protein)
chain: QYPSDGRGQYPSDGRGQYPSDGRGQYPSDGRGQYPSDGRGQYPSDGRGQYPSDGRGQYPSDGRGQYPSDGRGQYPSDGRGQYPSDGRGQYPSDGRGQYPSDGRGQYPSDGRGQYPSDGRGQYPSDGRGQYPSDGRGQYPSDGRGQYPSDGRGQYPSDGRGQYPSDGRGQYPSDGRGQYPSDGRGQYPSDGRGQYPSDGRGQYPSDGRGQYPSDGRGQYPSDGRGQYPSDGRGQYPSDGRGQYPSDGRGQYPSDGRGQYPSDGRGQYPSDGRGQYPSDGRGQYPSDGRGQYPSDGRGQYPSDGRGQYPSDGRGQYPSDGRGQYPSDGRGQYPSDGRGQYPSDGRGQYPSDGRGQYPSDGRGQYPSDGRGQYPSDGRGQYPSDGRGQYPSDGRGQYPSDGRGQYPSDGRGQYPSDGRGQYPSDGRGQYPSDGRGQYPSDGRGQYPSDGRGQYPSDGRGQYPSDGRGQYPSDGRGQYPSDGRGQYPSDGRGQYPSDGRGQYPSDGRGQYPSDGRGQYPSDGRGQYPSDGRGQYPSDGRGQYPSDGRGQYPSDGRGQYPSDGRGQYPSDGRGQYPSDGRGQYPSDGRGQYPSDGRGQYPSDGRGQYPSDGRGQYPSDGRGQYPSDGRGQYPSDGRGQYPSDGRGGVGVPGVGVPGVGVPGVGVPGVGVPGVGVPGVGVPGVGVPGVGVPGVGVPGVGVPGVGVPGVGVPGVGVPGVGVPGVGVPGVGVPGVGVPGVGVPGVGVPGVGVPGVGVPGVGVPGVGVPGVGVPGVGVPGVGVPGVGVPGVGVPGVGVPGVGVPGVGVPGVGVPGVGVPGVGVPGVGVPGVGVPGVGVPGVGVPGVGVPGVGVPGVGVPGVGVPGVGVPGVGVPGVGVPGVGVPGVGVPGVGVPGVGVPGVGVPGVGVPGVGVPGVGVPGVGVPGVGVPGVGVPGVGVPGVGVPGVGVPGVGVPGVGVPGVGVPGVGVPGVGVPGVGVPGVGVPGVGVPGVGVPGVGVPGVGVPGVGVPGVGVPGVGVPGVGVPGVGVPGVGVPGVGVPGVGVPGVGVP
Consider B1, for which, in series [1], the Nagg was 693, the “Rg(nm)” value turned out to be 94.4 nm, the “Rh (nm)” value amounted to 71.0 nm and the ρ is 1.31. Also, in series [2], the “Spacing (nm)” value is 29.6 ± 3.8 nm and the “Core radius (nm)” value stood at 14.2 ± 2.4 nm.

B2: RLP40-ELPV80: RLP-ELP block co-polypeptide with Val guest residue in the corona (protein)
chain: QYPSDGRGQYPSDGRGQYPSDGRGQYPSDGRGQYPSDGRGQYPSDGRGQYPSDGRGQYPSDGRGQYPSDGRGQYPSDGRGQYPSDGRGQYPSDGRGQYPSDGRGQYPSDGRGQYPSDGRGQYPSDGRGQYPSDGRGQYPSDGRGQYPSDGRGQYPSDGRGQYPSDGRGQYPSDGRGQYPSDGRGQYPSDGRGQYPSDGRGQYPSDGRGQYPSDGRGQYPSDGRGQYPSDGRGQYPSDGRGQYPSDGRGQYPSDGRGQYPSDGRGQYPSDGRGQYPSDGRGQYPSDGRGQYPSDGRGQYPSDGRGQYPSDGRGQYPSDGRGGVGVPGVGVPGVGVPGVGVPGVGVPGVGVPGVGVPGVGVPGVGVPGVGVPGVGVPGVGVPGVGVPGVGVPGVGVPGVGVPGVGVPGVGVPGVGVPGVGVPGVGVPGVGVPGVGVPGVGVPGVGVPGVGVPGVGVPGVGVPGVGVPGVGVPGVGVPGVGVPGVGVPGVGVPGVGVPGVGVPGVGVPGVGVPGVGVPGVGVPGVGVPGVGVPGVGVPGVGVPGVGVPGVGVPGVGVPGVGVPGVGVPGVGVPGVGVPGVGVPGVGVPGVGVPGVGVPGVGVPGVGVPGVGVPGVGVPGVGVPGVGVPGVGVPGVGVPGVGVPGVGVPGVGVPGVGVPGVGVPGVGVPGVGVPGVGVPGVGVPGVGVPGVGVPGVGVPGVGVPGVGVPGVGVPGVGVPGVGVP
On to B2, for which, in series [1], the “shape factor / form factor (Rg/Rh)” value is recorded as above 1, the Nagg turned out to be 213, the “Rg(nm)” value is 33.1 nm and the “Rh (nm)” value turned out to be 31.7 nm. Also, in series [1], the ρ turned out to be 1.04. In addition, in series [2], the “Spacing (nm)” value was found to be 19.4 ± 4.4 nm and the “Core radius (nm)” value came out at 14.5 ± 3.6 nm.

B3: RLP40-ELPS80: RLP-ELP block co-polypeptide with Ser guest residue in the corona (protein)
chain: QYPSDGRGQYPSDGRGQYPSDGRGQYPSDGRGQYPSDGRGQYPSDGRGQYPSDGRGQYPSDGRGQYPSDGRGQYPSDGRGQYPSDGRGQYPSDGRGQYPSDGRGQYPSDGRGQYPSDGRGQYPSDGRGQYPSDGRGQYPSDGRGQYPSDGRGQYPSDGRGQYPSDGRGQYPSDGRGQYPSDGRGQYPSDGRGQYPSDGRGQYPSDGRGQYPSDGRGQYPSDGRGQYPSDGRGQYPSDGRGQYPSDGRGQYPSDGRGQYPSDGRGQYPSDGRGQYPSDGRGQYPSDGRGQYPSDGRGQYPSDGRGQYPSDGRGQYPSDGRGGSGVPGSGVPGSGVPGSGVPGSGVPGSGVPGSGVPGSGVPGSGVPGSGVPGSGVPGSGVPGSGVPGSGVPGSGVPGSGVPGSGVPGSGVPGSGVPGSGVPGSGVPGSGVPGSGVPGSGVPGSGVPGSGVPGSGVPGSGVPGSGVPGSGVPGSGVPGSGVPGSGVPGSGVPGSGVPGSGVPGSGVPGSGVPGSGVPGSGVPGSGVPGSGVPGSGVPGSGVPGSGVPGSGVPGSGVPGSGVPGSGVPGSGVPGSGVPGSGVPGSGVPGSGVPGSGVPGSGVPGSGVPGSGVPGSGVPGSGVPGSGVPGSGVPGSGVPGSGVPGSGVPGSGVPGSGVPGSGVPGSGVPGSGVPGSGVPGSGVPGSGVPGSGVPGSGVPGSGVPGSGVPGSGVPGSGVPGSGVP
In the case of B3, in series [1], the Nagg was 80, the “Rg(nm)” value came out at 27.2 nm, the “Rh (nm)” value was found to be 33.0 nm and the ρ worked out at 0.82. Besides, in series [2], the “Spacing (nm)” value was 20.0 ± 2.6 nm and the “Core radius (nm)” value turned out to be 13.1 ± 2.7 nm.

B4: RLP80-ELPS80: RLP-ELP block co-polypeptide with Ser guest residue in the corona (protein)
chain: QYPSDGRGQYPSDGRGQYPSDGRGQYPSDGRGQYPSDGRGQYPSDGRGQYPSDGRGQYPSDGRGQYPSDGRGQYPSDGRGQYPSDGRGQYPSDGRGQYPSDGRGQYPSDGRGQYPSDGRGQYPSDGRGQYPSDGRGQYPSDGRGQYPSDGRGQYPSDGRGQYPSDGRGQYPSDGRGQYPSDGRGQYPSDGRGQYPSDGRGQYPSDGRGQYPSDGRGQYPSDGRGQYPSDGRGQYPSDGRGQYPSDGRGQYPSDGRGQYPSDGRGQYPSDGRGQYPSDGRGQYPSDGRGQYPSDGRGQYPSDGRGQYPSDGRGQYPSDGRGQYPSDGRGQYPSDGRGQYPSDGRGQYPSDGRGQYPSDGRGQYPSDGRGQYPSDGRGQYPSDGRGQYPSDGRGQYPSDGRGQYPSDGRGQYPSDGRGQYPSDGRGQYPSDGRGQYPSDGRGQYPSDGRGQYPSDGRGQYPSDGRGQYPSDGRGQYPSDGRGQYPSDGRGQYPSDGRGQYPSDGRGQYPSDGRGQYPSDGRGQYPSDGRGQYPSDGRGQYPSDGRGQYPSDGRGQYPSDGRGQYPSDGRGQYPSDGRGQYPSDGRGQYPSDGRGQYPSDGRGQYPSDGRGQYPSDGRGQYPSDGRGQYPSDGRGQYPSDGRGGSGVPGSGVPGSGVPGSGVPGSGVPGSGVPGSGVPGSGVPGSGVPGSGVPGSGVPGSGVPGSGVPGSGVPGSGVPGSGVPGSGVPGSGVPGSGVPGSGVPGSGVPGSGVPGSGVPGSGVPGSGVPGSGVPGSGVPGSGVPGSGVPGSGVPGSGVPGSGVPGSGVPGSGVPGSGVPGSGVPGSGVPGSGVPGSGVPGSGVPGSGVPGSGVPGSGVPGSGVPGSGVPGSGVPGSGVPGSGVPGSGVPGSGVPGSGVPGSGVPGSGVPGSGVPGSGVPGSGVPGSGVPGSGVPGSGVPGSGVPGSGVPGSGVPGSGVPGSGVPGSGVPGSGVPGSGVPGSGVPGSGVPGSGVPGSGVPGSGVPGSGVPGSGVPGSGVPGSGVPGSGVPGSGVPGSGVPGSGVP
With B4, in series [1], the Nagg came to 392, the “Rg(nm)” value came to 36.0 nm, the “Rh (nm)” value was determined as 49.4 nm and the ρ amounted to 0.73. Besides, in series [2], the “Spacing (nm)” value is 27.9 ± 4.0 nm and the “Core radius (nm)” value was found to be 14.6 ± 2.2 nm.

For the origin of these results see patent publication US20230093708A1, “PROTEIN NANOPARTICLE DESIGN AND APPLICATION” (Duke University, priority 2020, published 2023).
